Experiment [1] addresses GFP-tagged JNK1 (JNK1β) in pEGFP-C2. The experiment is described as follows: co-immunoprecipitation (anti-FLAG IP, anti-GFP immunoblot, densitometry). The following applies: COS-7 cells, transient transfection 48 h; parent: est. 1.0; read off a plot.
In experiment [2] the target is Full-length FLAG-tagged MKP7 C244S (catalytically inactive, substrate-trapping) (human) (UniProt Q9BY84). In words: co-IP; COS-7 cells cotransfected for 48 h in 10% FBS DMEM with FLAG-MKP7 (WT or mutants) and p38α MAPK-HA, JNK1β-GFP or ERK2-HA; Pierce IP lysis buffer; immunoprecipitation with anti-FLAG M2 overnight and protein-G beads; immunoblot with anti-HA or anti-GFP; quantitation as MAPK/FLAG-MKP7. In general terms: In western blotting, separated proteins are transferred to a membrane and probed.
Sequence of UniProt Q9BY84 (Q9BY84 whole entry C244S): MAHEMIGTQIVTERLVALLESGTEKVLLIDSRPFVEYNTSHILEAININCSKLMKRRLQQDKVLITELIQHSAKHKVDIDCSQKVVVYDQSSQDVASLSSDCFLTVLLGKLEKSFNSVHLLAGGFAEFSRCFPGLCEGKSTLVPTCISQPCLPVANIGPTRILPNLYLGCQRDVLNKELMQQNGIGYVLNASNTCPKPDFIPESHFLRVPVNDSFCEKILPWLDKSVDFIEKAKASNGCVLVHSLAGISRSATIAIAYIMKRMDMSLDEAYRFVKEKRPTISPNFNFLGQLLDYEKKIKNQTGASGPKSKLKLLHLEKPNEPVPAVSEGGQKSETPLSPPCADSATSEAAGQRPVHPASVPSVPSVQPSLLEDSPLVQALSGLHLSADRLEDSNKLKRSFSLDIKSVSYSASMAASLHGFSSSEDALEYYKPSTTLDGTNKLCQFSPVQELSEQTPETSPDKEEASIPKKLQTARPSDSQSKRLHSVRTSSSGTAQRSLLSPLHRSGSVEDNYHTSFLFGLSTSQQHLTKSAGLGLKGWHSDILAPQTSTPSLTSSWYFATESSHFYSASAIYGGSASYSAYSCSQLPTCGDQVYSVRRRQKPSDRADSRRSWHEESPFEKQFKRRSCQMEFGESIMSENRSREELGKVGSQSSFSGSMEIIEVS

Sequence of GFP-tagged JNK1 (JNK1β) in pEGFP-C2 (P45983 whole entry): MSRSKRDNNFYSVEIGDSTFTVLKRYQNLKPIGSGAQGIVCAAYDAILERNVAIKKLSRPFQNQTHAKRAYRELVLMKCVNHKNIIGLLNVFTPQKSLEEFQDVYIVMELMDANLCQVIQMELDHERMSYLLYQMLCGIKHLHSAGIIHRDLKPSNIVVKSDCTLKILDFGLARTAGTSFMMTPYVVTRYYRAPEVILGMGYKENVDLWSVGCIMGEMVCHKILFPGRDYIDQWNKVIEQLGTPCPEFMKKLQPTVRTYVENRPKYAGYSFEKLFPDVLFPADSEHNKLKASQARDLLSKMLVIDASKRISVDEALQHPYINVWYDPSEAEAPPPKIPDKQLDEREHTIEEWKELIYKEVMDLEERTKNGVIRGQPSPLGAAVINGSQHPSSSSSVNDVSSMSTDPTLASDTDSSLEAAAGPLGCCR

“Full-length FLAG-tagged MKP7 WT (1-665 aa) (from UniProt Q9BY84) Y271S; C244S”: the ratio to parent in experiment [1] amounted to 0. Consider “GFP-tagged JNK1 (JNK1β) in pEGFP-C2 (enzyme)”, for which the fold bound compared with WT in experiment [2] came out at 3 fold. On to “Full-length FLAG-tagged MKP7 WT (1-665 aa) (from UniProt Q9BY84) Y271S”, for which the ratio to parent in experiment [1] came out at 0.
